# Data from patent US7291458B2, “Leptin-mediated gene-induction” (Vlaams Interuniversitair Instituut Voor Biotechnologie VZW, priority 1998, dated 2007).
# Tested on: PC12-LR8 cells
# Assay: Northern blot analysis of gene induction in non-differentiated PC12-LR8 cells
# Type: cell-based, rat
# Method: PC12-LR8 cells were treated with leptin (L), forskolin (F), or a combination of both (F/L) for the indicated length of time. Hybridization with the mouse b-actin probe was used as a control. NI stands for non-induced control cells. Sizes of transcripts are shown on the right. Exposure times to Biomax MS films were 5.5 days for LIP-I and LIP-II, and 1 day for the corresponding b-actin blot, all at −80° C.
# FIG. 6A. Induction patterns of Reg I, HIP-I and peripherin after a 12 hours stimulation with forskolin (F), leptin (L), forskolin plus leptin (F/L), hyper-IL-6 (H) or forskolin plus hyper-IL-6 (F/H). Untreated cells were analyzed as a control (NI). Exposure times to BioMax MS films for Reg I, HIP-I and b-actin were 4 days, 5 days and 3 hours, respectively; and in a separate experiment for peripherin and b-actin, 16 hours and 2 days.
# FIG. 6B Induction patterns of PAP I, PAP III, MT-II, Fnk, MRF-1, SOCS-3 and STAT-3 after stimulation with leptin (L) or hyper-IL-6 (H), compared to non-treated control cells (NI). In all cases stimulation was for 12 hours, with the exception of PAP III where stimulation was for 24 hours. b-actin hybridization patterns are shown as control. Exposure times to BioMax MS films at −80° C. were 16 hours for PAP I and 1 hour for b-actin; 4 days for PAP III and 1 hour for b-actin; 3 days for MT-II and Fnk, and2 days for b-actin; 3 days for MRF-1, 2.5 days for SOCS-3 and2 days for b-actin; and 16 hours for STAT-3 and 3 hours for b-actin.
# FIG. 8A. Northern blot analysis of the immediate early response genes. PC12-LR8 cells were left untreated (NI: non induced), or were treated with forskolin (F), leptin (L) or a combination of both (F/L) for the indicated time points. Exposure times to BioMax MS films for the different transcripts were Fnk: 6 days, MT-II: 5 days, MRF-1: 6 days, SOCS-3: 14 hours, STAT-3: 14 hours, b-actin: 5 hours.
# FIG. 8B. Immediate early response gene-set: early kinetics. PC12-LR8 cells were treated with leptin alone (L) or with a combination of leptin and forskolin (F/L) for the indicated length of time. Exposure time to BioMax MS films were: Fnk: 3 days, MT-II: 3 days, MRF-1: 3 days, SOCS-3: 2.5 days, STAT-3: 2.5 days, b-actin: 1 hour.
# FIG. 8C. Northern blot analysis of the late target genes. PC12-LR8 cells were left untreated (NI), or were treated with forskolin (F), leptin (L) or a combination of both (F/L) for the indicated length of time. Exposure times to BioMax MS films were: Ann VIII: 6 days, PAP I: 14 hours, Squalene Epoxidase: 5 days, UGT: 5 days, b-actin: 14 hours.
# PC12 cells were cultured in RPMI 1640 medium with glutamax-I (GibcoBRL) containing 10% heat-inactivated foetal calf serum (iFCS) and gentamycin (50 μg/ml). The cells were treated with medium alone or supplemented with 100 ng/ml of mouse leptin (R&D Systems), with forskolin (Sigma) at a concentration of 10 μM or with a combination both, unless otherwise indicated.
# Total RNA was prepared from PC12 cells using RNeasy™ method (Qiagen). RNA (10 μg) was separated on a 1.5% agarose,6% formaldehyde gel, transferred to a nylon membrane (Zeta-Probe GT Genomic, Bio-Rad), and cross-linked using UV radiation. The filters were hybridized for one hour at 68° C. in ExpressHyb™ solution (Clontech) with [^32P]dCTP-labeled DNA-probes and washed 3 times with 2×SSC, 0.05% SDS at room temperature and twice in 0.1×SSC, 0.1% SDS at 50° C. Autoradiographs were obtained by exposing the blots to BioMax MS film (Kodak) with intensifying screens at −70° C. All Northern blots were normalized by hybridization using a b-actin probe.
molecule,measurement,setting,value
"leptin: mouse leptin (R&D Systems), ob gene product, used on PC12 cells at 100 ng/ml (protein) VPIQKVQDDTKTLIKTIVTRINDISHTQSVSAKQRVTGLDFIPGLHPILSLSKMDQTLAVYQQVLTSLPSQNVLQIANDLENLRDLLHLLAFSKSCSLPQTSGLQKPESLDGVLEASLYSTEVVALSRLQGSLQDILQQLDVSPEC",kinetics of synthesis of SOCS-3 mRNA,2 hours post stimulation,rapid decline
same,time of optimal mRNA levels post induction,"Annexin VIII, Squalene epoxidase",over 96 hours
same,time of induction of immediate early response genes,"Fnk, MT-II, MRF-1, STAT-3, SOCS-3, leptin treatment",≤ 4 h
same,time of optimal mRNA levels post induction,"PAP I, UGT",22 h
same,time of induction of late activated target genes after stimulus,"PAP I, UGT, Ann VIII, squalene epoxidase, leptin treatment",≥ 6 h
same,induction of HIP-I and Reg transcripts,RDA hyper-IL-6 versus leptin,not induced
same,time of optimal stimulation post induction,SOCS-3,30 min
same,time of optimal stimulation post induction,STAT-3,480 min
same,induction of PAP I and PAP III transcripts,without forskolin,requires forskolin co-stimulation
